Reference: patent publication US5661003A, “Water channel” (Marumo; Fumiaki, priority 1992, dated 1997)

Experiments:
WCH-1 water channel = biological target: T1, WCH-1 water channel (Rattus norvegicus, UniProt P34080); experiment: Effect of mercurial sulfhydryl reagent and reducing agent on Pf of WCH-1-injected oocytes; format: cell-based
T1 construct: The longest open reading frame encodes a 271-amino acid protein (Mr 28928); expressed in transfected cells; host or cells: Xenopus laevis oocytes injected with cRNA transcribed from WCH-1 in pSPORT
T1 sequence (P34080 1-271): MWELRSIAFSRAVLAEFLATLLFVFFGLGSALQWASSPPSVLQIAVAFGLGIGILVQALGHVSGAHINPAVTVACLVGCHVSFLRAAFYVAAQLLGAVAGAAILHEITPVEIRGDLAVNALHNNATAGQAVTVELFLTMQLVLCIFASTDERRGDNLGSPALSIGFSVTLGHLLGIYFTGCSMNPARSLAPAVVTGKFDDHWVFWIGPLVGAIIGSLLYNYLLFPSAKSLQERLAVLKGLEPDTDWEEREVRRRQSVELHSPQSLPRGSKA
Protocol: (§1) Capped cRNA was synthesized from WCH-1 in pSPORT vector using T7 RNA polymerase after linearization of the pSPORT vector. Oocytes were obtained from female Xenopus laevis and prepared as described in Dascal, N. CRC Crit. Rev. Biochem. 22, 317-373 (1987), then injected with […] or 20 ng of WCH-1 RNA (1 μg/μL) and incubated at 18° C. […] Oocytes were viewed by light transmitted through an Olympus phase-contrast microscope and imaged on a Hamamatsu SIT camera connected to ARGUS-200 image processing system. Images were obtained and stored at 20-s intervals.
(§2) Osmotic water permeability (Pf) was determined from an initial slope of a time curve of V/Vo (d (V/Vo)/dt), initial oocyte volume (Vo =9×10^-4 cm^3), initial oocyte surface area (S=0.045 cm^2), the molar volume of water (Vw =18 cm^3 /mol) by:
(§3) Pf=[Vo×d (V/Vo)/dt]/[S×Vw ×(osmin
To examine the effects of mercurial sulfhydryl reagents, oocytes were incubated in Barth's buffer containing 0.3 mM HgCl2 for 5 minutes prior to Pf measurements. The recovery of the inhibition by reducing agents was examined by 15 minutes incubation in a Barth's buffer containing 5 mM β-mercaptoethanol following 5-minute incubation in HgCl2.

Xenopus oocytes = experiment: Osmotic water permeability of Xenopus oocytes injected with WCH-1 RNA (videomicroscopy of osmotic volume increase); format: cell-based, Xenopus laevis
Protocol: To determine the osmic water permeability of oocytes injected with the WCH-1 transcript, volume increase caused by an imposed osmotic gradient was measured using videomicroscopy (Zhang, R. & Verkman, A. S. Am. J. Physiol. 260, C26-C34 (1991)).
as §1
Oocytes images were processed as described in Zhang, R. & Verkman, A. S. Am. J. Physiol. 260, C26-C34 (1991) and the projection area of the oocytes was calculated by automatic summation. Relative volume (V/Vo) was calculated from the area at time 0 (Ao) and at time t (A) by:
as §2, §3

Molecule: OCCS [B-mercaptoethanol, β-mercaptoethanol]
- Pf in WCH-1-injected oocytes after recovery with reducing agent (WCH-1 water channel; 5 mM mercaptoethanol for 15 minutes following incubation in 0.3 mM HgCl2): 63.1±25.8 ×10^-4 cm/sec

Molecule: [Cl][Hg][Cl] [HgCl2]
- Pf in WCH-1-injected oocytes after incubation in HgCl2 (WCH-1 water channel; 0.3 mM HgCl2, five minutes, Pf without HgCl2 83.9±18.2): 44.5±3.6 ×10^-4 cm/sec

B1: WCH-1: vasopressin-regulated water channel localized in the kidney collecting tubule; expressed in oocytes by injection of its capped cRNA (protein, UniProt P34080 1-271, looked up)
Aquaporin-2: T1 sequence (P34080 1-271)
- Pf in WCH-1-injected oocytes relative to Pf in water-injected oocytes (Xenopus oocytes; WCH-1-injected vs water-injected oocytes): 3.5 times
- Osmotic water permeability (Pf) (Xenopus oocytes; oocytes injected with 20 ng WCH-1 RNA, 24 h incubation, transfer from 200 mOsm to 70 mOsm Barth's buffer, 24° C., mean±SEM): 83.9±18.2 ×10^-4 cm/s
- Oocytes ruptured after transfer into the hypotonic solution (Xenopus oocytes; within 10 minutes, none of water-injected oocytes ruptured for more than 60 minutes): ten out of eleven
